From the DeepSol protein solubility set

Assay: soluble on expression in E. coli; label from the status in PepcDB or PDB records

Sequence | soluble on expression in E. coli
SCSTSGCDLEEIPLDDDDLNTIEFKILAYYTRHHVFKSTPALFSPKLLRTRSLSQRGLGNCSANESWTEVSWPCRNSQSSEKAINLGKKKSSWKAFFGVVEKEDSQSTPAKVSAQGQRTLEYQDSHSQQWSRCLSNVEQCLEHEAVDPKVISIANRVAEIVYSWPPPQATQAGGFKSKEIFVTEGLSFQLQGHVPVASSSKKDEEEQILAKIVELLKYSGDQLERKLKKDKALMGHFQDGLSYSVFKTITDQVLMGVDPRGESEVKAQGFKAALVIDVTAKLTAIDNHPMNRVLGFGTKYLKENFSPWIQQHGGWEKILGISHEEVD | soluble
MYQKFKGGDLMIHGGDIYTEGVFKGRELLDYSSNINPLGIPKSFLNNIDEGIKNLGVYPDVNYRRLNKSIENYLKLKDIGIVLGNGASEIIELSISLFEKILIIVPSYAEYEINAKKHGVSVVFSYLDENMCIDYEDIISKIDDVDSVIIGNPNNPNGGLINKEKFIHVLKLAEEKKKTIIIDEAFIEFTGDPSSSFVGEIKNYSCLFIIRAMTKFFAMPGIRFGYGITNNKEIAAKIKAKQNPWNINCFAEMAAINCLKDTNYIEESLLWIKKERKRFIEELNKIGFIKRVFSPHANFVLCRLENISGEKLYDSLLKEDIVIRRCCNFIGLDDSFVRFAIKDEKKNTKFLRALKGVENNL | soluble
MKITVIVPTYRRTKDLTRCLESLEKQSRPADEVLVVVRDTDVETWQFLETIAPHSLPLHTTTVRVPGVVAAMNAGLDIAQGDIIAFTDDDAAPHSNWLAQIETHFLAHEQIAGVGGRDWVYHGDRLEDGTCPVVGQVHWFGRVIGNHHIGIGKPREVDVLKGVNMSFRRSAVHGLRFDQRMLGTGAQVHFEVAFCLALKRAGWKLIYDPQIGVNHYPAQRFLEHHHHHH | not soluble
LNHIYNVAFWAEEIGKIVGLDEKRLAKLYLAGLLHDIGKVYIDERILNKEGRLTLQEYQEMKKHVDYSYNMVKDLMIWDIEDDVALWVVQHHEKFDGSGYPFGLKEEEITPEGRILKIADTLDA | soluble
MAAGKRDYYEVLGVSRSATAQDIKRAFRKLAMQYHPDRHKGEGETVQKQNEEKFKEVNEAYEVLSDTEKRGMYDRFGHEGLNASGFHETGFNPFDIFNSVFGEGFSFDMDGGSPFDFIFSRGKKSRQNRVVLPYDLEIAVGVDISFFEMTNGCTRTIEYTKRVTCSACDGFGAEGGETGMVSCNSCEGNGFILKNQRSIFGTVQSQMLCQSCGGQGKQAKHKCKTCKGSKYKKVPTTKEIQIPAGIYHGDALVDDHGGNEFGGHVGKLVVHVGVLPSKIFKRVDHNVVANVLVDPMIAITGGKIELPTLEGIKEFNLRAGTKSGEQIVIPGGGIKFTKNFRKKAGDLIIIISYARPSEYSAPELRKLKEFIKPNQEVKQYLEHHHHHH | soluble
MAHHHHHHMQRHSSHLLLLLVAVVIPVCSEDKLDFTKLRDPFDMDEINRKLQEKVADDDPVQKAMPDPMDPKFRAPLRCSACGAVIEHAVRLLRPIIERQSERAARSGGVLPADALPKEYEMVDIFENLCGEVGRLYGLEVEKDKKRPTLRFSKSFGVSRLQGAWMPSFLTSTCEGVLDVEGEEKLAAMILGVARSEAEAGRGKVISMNPDQGIVDKVREMVCTKWEESAKGCDAYGVAIDPRETDNDDGAEEAASDL | soluble
MCLAIPGKVVEIKGNVGIVDFGGIRREVRLDLLSDVKVGDYVIVHTGFAIEKLDERRAREILEAWEEVFSVIGGE | not soluble
AHHHHHHGSSVEVPLNPITRSEIHQLESILLFATLFRPEVIELIKDPAERLTWVDSLAVAAGAIAREKAGMTVSEIARELGRTEQTIRKHLKGESKAGQLVRETYELIKQGKLDELIKTIEMIEKGGLREVVAKEEYEKLLQEYEKLKQEYEAIKEKVEAAELESLEKAKEEIENLKKKLQKLEEEKKELEKELKEQKVKLIEYEAKAKRAEELENKVKELEQLAKESEELKKKLEEVQAEAEKAKELENRIKELEEEITKLKDGIKKAKEILESLL | not soluble
MGSDKIHHHHHHVIKLIRQFVLPHFGIDATEAKISALGNGHINETLLVRWPTGELVLQRINTQVFKTPQALVSNADKISHHLCAKALQQQYGLKVVSPCLTKEGELALDLGEQGFWRAISYLPHSHSIEVVKSEKEAEMAAKAFGHFASALSDFDATQLEDVIPQFHHLPGRMALLKQAVELDSQHRLAFCRHWVDYAVSQQALLDELAEISPKLPLRICHNDTKINNMLFDKRDMSSMAIIDLDTCMKGHLMYDFGDMVRTFCSPEAEDSTALENVKVRQSIFAAICRGYLSELGNVLTEVEKRSLWLGARVICLMIGVRFLTDYLNGDVYFHIHREGHNLDRAANQFTLYQSLLDQDVALKACFELNPLSAVEHS | not soluble
MAKVYGSLIDNETRCTHYYSSLDVIAIKFKCCNKYYPCYKCHNEHVSHTIERWAENEFDEKAIMCGVCKHEMRIRDYMMVEMCPRCKAHFNSRCKFHYHLYFEVLEHHHHHH | not soluble
GKNMDTSAEPADVQANVSDSSRIEQEAIGMIEDFYEAYAASFMSTGKEALALGDSIKQKFLTKELIEKVDRLIEATDADPIIRAQDLGENDMKTLSVKHLNDNWYEVNYTSAKGSQYERAVSIPVRVVNVDGQYLIDDITPEN | soluble
QIVDATEALMHDQNSQRITLNMVNSLALHWWIPRMPRLQTYAPQLDVRLSNLSGRFNLEQEGVDAALVHGNPEEWQDYYCEKLSEDELVLVCSPDLIDHSNPVNLSDILKTYPLIEVTNERRKHDWQVWSDATGVARPKNKKPITFNMSIQAVQATTRRLGVLVTHRLFVKDDIKYGQLIELGEPVINPNQQLYFVCPPHKLKQESFHLLRSWLKQEFA | soluble
PNGDKVHAWYWQSPRRDAPTVLYLHGARWNLNGSAFRMEGWTRMGYSMLAIDYRGFGQSTPLLPSEQSASQDAAAALQELARRQPDPARRFIYGHSLGGAIAIDLAARPDLPPFAGLIVESSFTSIGAMLGTMKWGWVPGATLLVTQPFASVDKLAALTTPMLLLHGTADRVVPHTMSDELYRAAQQVPADLKRLVKIEGASHSGAIRSGRIYEDAVADFVRDAGRGYAGRQGAPTPLTASRPGT | not soluble
MSLQWECWPSLPCWRCFAASGRITLSIKRFTQNSRRHDMKITKINAIPLSYRLPEGKTVTMGVGSTIKRDAIIIRVETSEGITGYGEAHPGRSPGAITSLIHNTIAPMLIGMKATDCVGAWQRVHRMQLSSHGLGAGAALAISGIDMALWDIRGKAANMPLYELLGGSKRRIPAYAGGIALGYQPKESLAEEAQEYIARGYKALKLRIGDAARVDIERVRHVRKVLGDEVDILTDANTAYTMADARRVLPVLAEIQAGWLEEPFACNDFASYREVAKITPLVPIAAGENHYTRFEFGQMLDAGAVQVWQPDLSKCGGITEGIRIAAMASAYRIPINAHSSATGLNHAATIHFLAATENAGYFEACVSKFNPFRDMFGTSFEIGADGCVEPPDAPGLGIEVDESIFEKYPAVDGPGYVVKFEGHHHHHH | soluble
MSKHRIALAGNPNTGKSTLFNTLTGLKQHTGNWTGKTVLKAEGEYEHNGSNYTLIDLPGTYSLYSNSADEEVARDYIIFEKPEVTVVVIDATAMERNLNLALQVMEMTNNVVICINLIDEAEKKGIVIDEKKLAKSLGVPVVKISARNRVGIGHLLNVIAKVANKKLIPTPIKITYSEKIENMIQELEPQIYKVFGDTYPARWIALRILDGDKNFLTTLQKHHNEPLVREVVINGISLSQ | not soluble
MNYLERLVESWPVEQCSAAVVTSDEVTTAGDGNIRYELASVTKLLSTYAVLIAVEEGAFALDTPCGPEGATVRHLLAHASGVGFRSTDACKAPEQRRIYSSYGFELLADVIAHEADMPFAQYLDEAVCQPIGMTHTQLWGSAGHESYSTVNDLVLFAREILQPSLIAQETLVQACTVQFPELHGIVPGYGMYKPCPWGLGFEIKGEKNPHWTAAVMPHTTVGHFGQAGTYLWVDRESQRAMVALTNRSFGDWAKPLWAETNAGVWEHLDQLNL | not soluble
MSLSVNDRDTSALRYFDFKDDEFVKPSPTEFNSWINREIVTKHHPHHNGYDEIYTKNQPQVIEGDFLYGDVRVKLANEWVSIYEYSLDSSSPSWNKIGRAVTDTNGHIKYNIPNNMKLSYGMHLIKLYVEGDGTSANMYIQVLDNTKKYVVFDMDGTLTTTDFEDVKQYAGEFFNSNYVAKMYPDVDNVVKYYASKGYGILYLTARPYWLSEESQTWLWKNGFPMGLLHTYTGGDVLLGEEAESFKAGYLNQLKSQGIEFDYGFGNEKTDVEAYSNIGIAKSNIFTIGKNRGIDGSVSIVSYTDYLKQLSGNEGHHHHHH | soluble
MPHLFYGTAQNGEVIFDEREAHHMRVVRLKEGDVIEATDGNGFSYTCILKSLKKKTAAAKIVKVEEKEKEPTEKLSVVVPIGRWERTRFLIEKCVELGVDEIFFHKFERSQHEISLDKAKIVVREAAKQCKRYLFPKVSFLEKLEFSGNVITLDLDASQNLLDANLEGSITVVVGPEGGFSEKERELLRSSTTIVSLGKKILRFETAAILTVGYIALKKQKI | not soluble
MAHHHHHHMRFLSSSAVSPSPIRPSTGGASGKERLHHELPILHWRAGGGGEVGGGQHDDADSSDEYNEAHLCCDDWASSPAEPAAAAATFQTRQSDTPDGLHVDSDDDDNADDDGGEDTAGQTWIEEALRRAEAKCAVLRLELTFATERAVAAEANARARERECAELHALASRMQAQLAAAQMTAEWATANTRADAEVQVAACTASLDDIAASAFSSPNSPNRLGTTSLSMRKGTALADGTVWRRRHDIVAQELATLKVSMAEQLAVLDRLGMQPPFSEELVCAAERRLRHVKVAHAPGTAMKASQPDATIPGTPHTLTRSTCVDSAASADLSAGGASVTATTKKIQVRNGNKIAALLNLRKQNRHQEKPAAAAADAMATGVTDSATTPSTSAPPVKRDGSEDCRTTLDAKENHYVV | not soluble
MSGQKCSAYTDTMGTCTICSIFAPHSQLFICRHEGCKYALKQSSSIMTPAMFYRKEKVICGKCAFVGPHKMHKDFVSKAQKLAFKIASQEIGVRLQMEFDVLSELHEDNPVDYAIILSGHEKLEKIDVIKYLSQSKTIVEWNLRQRQLNEAIQFIKFNRIEGYHRVKELANKMLDAFYDANATIERDSENGSPQSDDDHLSDVSHECQGSSRSSISSKKSSIHSTSTTGTVILNQNPDNALSCSEVSGGDELKNKSSTNEGYTESMTETVITISRRFEMCIRRESPEDAVSRIADYLDDRIESNDQKKAIAEYMERNYSIKWPRQFQ | not soluble
MGSDKIHHHHHHMRSIVQNKVEECLEILKWDKTKWIDFWRELRRKFGPIVPNYERKLELNDEKIEKILREIERRELDRFKWDWLDVSRNKKIECAESLSEREDFLDLKREDFSVFLMSLLGLSDWVVVDGEKEKIVVMDVFSLWRKGLLRELSLATLHAVIEFRKGKEIGNYGGKKEYFDSLLKEIEKILKRGKEALGDLCEFLRNHVSYYDWVGFYFVEDGKLKLGPFVGEPTEHVEIPFGVGICGQAAEREETFVVQDVSKETNYLSCSPKTKAEIVVPIFKDGKIIGELDIDSYSPSPFSEEDRAFLEKVCELVSKVV | not soluble
MDHIELRKKIGQAIRTARIRRGLVMRDLAEAGGVSTGAVGNWERGANAIAMEHLQAISQKLRIDPVALSNGSLRYLDEEEALADAEQVTDFGPAPTGPMDVEVLGVAVGGDDGDFTLNGEVSGYVRRPPGIAHLRKVFALHVLSDSMIPRYDPGELIYVGGREAVAGDHVVIEMFPDEGATVGKAYVKKLKGRTKGAIVCEQYNPPKELQFDQYAIKNMWRIIPLRELLGY | not soluble
MSTATSKFLSYVLRHAPESIGLVLDSQGWADVADLLAKANASGTPLDEAGLRAVVAESDKKRFTLSEDGRRIRAAQGHSVKVDLGQPPVEPPPQLFHGTATRFLEPILREGLRPGERQQVHLSADRTTALAVGQRHGKPVVLIVDAGQMFADGCRFYLADNGVWLTDAVPFSYLTVSADSSAENDRLEHHHHHH | soluble
